# Key:
# Type in all cases: in vivo
# [1] = system: Arabidopsis thaliana T1 plants; assay: Topramezone tolerance of transgenic Arabidopsis thaliana T1 plants (spray, bleached leaf area grade, damage score); conditions: Table 13; for Classification and statistics of the grade of pesticide damage Grade 0: number of plants at grade 0; for Classification and statistics of the grade of pesticide damage Grade 1: number of plants at grade 1; for Classification and statistics of the grade of pesticide damage Grade 2: number of plants at grade 2; for Classification and statistics of the grade of pesticide damage Grade 3: number of plants at grade 3; for Scores: pesticide damage score
# In short: (§1)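 Damage was assessed by bleaching grade (0 none; 1 <50%; 2 >50%; 3 100% of leaf area) one week after spraying. Sprays on 18-day-old T1 and wild-type plants used field-rate multiples: topramezone 25–200, isoxaflutole 35–280, mesotrione 52.5–420 g ai/ha.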
# [2] = system: Arabidopsis thaliana T1 plants; assay: Mesotrione tolerance of transgenic Arabidopsis thaliana T1 plants (spray, bleached leaf area grade, damage score); design: Scores: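 damage score 0-100 computed as Σ(N×S)/(T×M)×100 over grades 0-3 with higher meaning more damage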; conditions: for Classification and statistics of the grade of pesticide damage Grade 0 / Classification and statistics of the grade of pesticide damage Grade 1 / Classification and statistics of the grade of pesticide damage Grade 2 / Classification and statistics of the grade of pesticide damage Grade 3: number of plants in grade
# In short: as §1
# [3] = system: Arabidopsis thaliana T1 plants; assay: Isoxaflutole tolerance of transgenic Arabidopsis thaliana T1 plants (spray, bleached leaf area grade, damage score); conditions: for Classification and statistics of the grade of pesticide damage Grade 0 / Classification and statistics of the grade of pesticide damage Grade 1 / Classification and statistics of the grade of pesticide damage Grade 2 / Classification and statistics of the grade of pesticide damage Grade 3: number of plants in grade;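 for Scores: Weighted damage index from 0 to 100 where higher means more damage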
# In short: as §1
Molecule,Resistance evaluation ([1]; topramezone 25 g ai/ha (1×)),Classification and statistics of the grade of pesticide damage Grade 0 ([1]; topramezone 25 g ai/ha (1×)),Classification and statistics of the grade of pesticide damage Grade 1 ([1]; topramezone 25 g ai/ha (1×)),Classification and statistics of the grade of pesticide damage Grade 2 ([1]; topramezone 25 g ai/ha (1×)),Classification and statistics of the grade of pesticide damage Grade 3 ([1]; topramezone 25 g ai/ha (1×)),Scores ([1]; topramezone 25 g ai/ha (1×)),Resistance evaluation ([1]; topramezone 100 g ai/ha (4×)),Classification and statistics of the grade of pesticide damage Grade 0 ([1]; topramezone 100 g ai/ha (4×)),Classification and statistics of the grade of pesticide damage Grade 1 ([1]; topramezone 100 g ai/ha (4×)),Classification and statistics of the grade of pesticide damage Grade 2 ([1]; topramezone 100 g ai/ha (4×)),Classification and statistics of the grade of pesticide damage Grade 3 ([1]; topramezone 100 g ai/ha (4×)),Scores ([1]; topramezone 100 g ai/ha (4×)),Resistance evaluation ([2]; mesotrione 52.5 g ai/ha),Scores ([2]; mesotrione 52.5 g ai/ha),Classification and statistics of the grade of pesticide damage Grade 0 ([2]; mesotrione 52.5 g ai/ha),Classification and statistics of the grade of pesticide damage Grade 1 ([2]; mesotrione 52.5 g ai/ha),Classification and statistics of the grade of pesticide damage Grade 2 ([2]; mesotrione 52.5 g ai/ha),Classification and statistics of the grade of pesticide damage Grade 3 ([2]; mesotrione 52.5 g ai/ha),Resistance evaluation ([2]; mesotrione 105 g ai/ha),Scores ([2]; mesotrione 105 g ai/ha),also measured
"AtHPPDm-F383Y-02: nucleotide sequence encoding Arabidopsis thaliana HPPD with F383Y; vector DBN11797 (nucleic acid, AtHPPDm-F383Y-02 Nucleotide Sequence, vector DBN11797) DNA: ATGGGACATCAGAATGCTGCTGTATCAGAAAATCAAAATCATGATGATGGAGCCGCCTCCTCACCAGGGTTTAAGTTGGTTGGGTTCTCCAAGTTTGTACGGAAGAACCCAAAATCCGACAAGTTCAAGGTTAAACGCTTCCACCACATTGAATTCTGGTGCGGCGACGCCACCAATGTTGCTCGGCGTTTTTCATGGGGTTTAGGCATGAGATTCTCAGCAAAGAGTGACCTGAGCACCGGCAACATGGTTCATGCTAGCTATCTCTTAACATCTGGAGATTTGAGGTTTCTTTTCACGGCGCCGTACTCACCATCACTCTCCGCCGGCGAGATCAAACCCACCACGACTGCAAGCATACCTTCATTTGATCATGGTAGTTGCAGATCCTTCTTCTCGTCGCACGGCCTAGGGGTGCGCGCGGTCGCCATCGAAGTTGAAGATGCAGAATCAGCGTTTAGTATCAGCGTGGCAAATGGAGCTATTCCTTCCTCCCCTCCAATTGTCCTCAATGAGGCTGTAACTATTGCCGAGGTGAAGTTGTATGGAGATGTTGTGCTGAGATATGTTTCTTACAAGGCAGAGGACACTGAGAAATCTGAATTTTTGCCTGGTTTTGAAAGGGTCGAGGATGCTTCAAGTTTTCCTCTTGATTACGGCATACGACGGTTGGATCACGCGGTTGGAAATGTACCAGAACTTGGGCCGGCGCTCACTTATGTGGCTGGTTTCACTGGATTCCATCAATTTGCTGAGTTCACAGCTGATGATGTTGGGACTGCTGAAAGTGGGTTGAACTCTGCAGTCCTCGCCTCTAATGATGAAATGGTGCTCCTCCCGATCAACGAGCCTGTGCATGGCACCAAAAGGAAATCACAAATACAGACATATCTTGAGCACAATGAAGGTGCAGGGCTTCAACATCTTGCACTGATGTCTGAAGACATTTTCCGTACGCTGAGAGAGATGAGGAAGAGAAGTAGTATTGGTGGATTTGACTTCATGCCTTCTCCCCCACCAACTTACTACCAGAACTTGAAGAAGAGGGTTGGTGATGTGCTATCTGATGACCAGATCAAGGAGTGTGAAGAATTGGGCATTCTTGTTGATCGGGACGACCAAGGAACATTACTGCAGATATTTACAAAACCACTTGGTGACCGCCCCACTATTTATATTGAGATCATACAAAGAGTCGGCTGCATGATGAAGGATGAGGAAGGAAAAGCATATCAATCTGGTGGTTGTGGCGGCTTTGGGAAAGGAAACTTCTCTGAGCTGTTCAAATCCATCGAGGAGTATGAGAAGACCTTGGAGGCCAAGCAGCTCGTGGGTTGA",Non-resistant,0,0,0,16,100,Non-resistant,0,0,0,16,100,Non-resistant,100,0,0,0,16,Non-resistant,100,Classification and statistics of the grade of pesticide damage Grade 0 ([2]; mesotrione 105 g ai/ha): 0; Classification and statistics of the grade of pesticide damage Grade 1 ([2]; mesotrione 105 g ai/ha): 0; Classification and statistics of the grade of pesticide damage Grade 2 ([2]; mesotrione 105 g ai/ha): 0; Classification and statistics of the grade of pesticide damage Grade 3 ([2]; mesotrione 105 g ai/ha): 16; Resistance evaluation ([3]; isoxaflutole 35 g ai/ha): Non-resistant; Scores ([3]; isoxaflutole 35 g ai/ha): 100; Classification and statistics of the grade of pesticide damage Grade 0 ([3]; isoxaflutole 35 g ai/ha): 0; Classification and statistics of the grade of pesticide damage Grade 1 ([3]; isoxaflutole 35 g ai/ha): 0; Classification and statistics of the grade of pesticide damage Grade 2 ([3]; isoxaflutole 35 g ai/ha): 0; Classification and statistics of the grade of pesticide damage Grade 3 ([3]; isoxaflutole 35 g ai/ha): 16; Resistance evaluation ([3]; isoxaflutole 70 g ai/ha): Non-resistant; Scores ([3]; isoxaflutole 70 g ai/ha): 100; Classification and statistics of the grade of pesticide damage Grade 0 ([3]; isoxaflutole 70 g ai/ha): 0; Classification and statistics of the grade of pesticide damage Grade 1 ([3]; isoxaflutole 70 g ai/ha): 0; Classification and statistics of the grade of pesticide damage Grade 2 ([3]; isoxaflutole 70 g ai/ha): 0; Classification and statistics of the grade of pesticide damage Grade 3 ([3]; isoxaflutole 70 g ai/ha): 16
"AtHPPDm-F372A-F383Y-02: nucleotide sequence encoding Arabidopsis thaliana HPPD with F372A+F383Y; vector DBN11798 (nucleic acid, AtHPPDm-F372A-F383Y-02 Nucleotide Sequence, vector DBN11798) DNA: ATGGGACATCAGAATGCTGCTGTATCAGAAAATCAAAATCATGATGATGGAGCCGCCTCCTCACCAGGGTTTAAGTTGGTTGGGTTCTCCAAGTTTGTACGGAAGAACCCAAAATCCGACAAGTTCAAGGTTAAACGCTTCCACCACATTGAATTCTGGTGCGGCGACGCCACCAATGTTGCTCGGCGTTTTTCATGGGGTTTAGGCATGAGATTCTCAGCAAAGAGTGACCTGAGCACCGGCAACATGGTTCATGCTAGCTATCTCTTAACATCTGGAGATTTGAGGTTTCTTTTCACGGCGCCGTACTCACCATCACTCTCCGCCGGCGAGATCAAACCCACCACGACTGCAAGCATACCTTCATTTGATCATGGTAGTTGCAGATCCTTCTTCTCGTCGCACGGCCTAGGGGTGCGCGCGGTCGCCATCGAAGTTGAAGATGCAGAATCAGCGTTTAGTATCAGCGTGGCAAATGGAGCTATTCCTTCCTCCCCTCCAATTGTCCTCAATGAGGCTGTAACTATTGCCGAGGTGAAGTTGTATGGAGATGTTGTGCTGAGATATGTTTCTTACAAGGCAGAGGACACTGAGAAATCTGAATTTTTGCCTGGTTTTGAAAGGGTCGAGGATGCTTCAAGTTTTCCTCTTGATTACGGCATACGACGGTTGGATCACGCGGTTGGAAATGTACCAGAACTTGGGCCGGCGCTCACTTATGTGGCTGGTTTCACTGGATTCCATCAATTTGCTGAGTTCACAGCTGATGATGTTGGGACTGCTGAAAGTGGGTTGAACTCTGCAGTCCTCGCCTCTAATGATGAAATGGTGCTCCTCCCGATCAACGAGCCTGTGCATGGCACCAAAAGGAAATCACAAATACAGACATATCTTGAGCACAATGAAGGTGCAGGGCTTCAACATCTTGCACTGATGTCTGAAGACATTTTCCGTACGCTGAGAGAGATGAGGAAGAGAAGTAGTATTGGTGGATTTGACTTCATGCCTTCTCCCCCACCAACTTACTACCAGAACTTGAAGAAGAGGGTTGGTGATGTGCTATCTGATGACCAGATCAAGGAGTGTGAAGAATTGGGCATTCTTGTTGATCGGGACGACCAAGGAACATTACTGCAGATAGCCACAAAACCACTTGGTGACCGCCCCACTATTTATATTGAGATCATACAAAGAGTCGGCTGCATGATGAAGGATGAGGAAGGAAAAGCATATCAATCTGGTGGTTGTGGCGGCTTTGGGAAAGGAAACTTCTCTGAGCTGTTCAAATCCATCGAGGAGTATGAGAAGACCTTGGAGGCCAAGCAGCTCGTGGGTTGA",Poorly,4,4,8,0,42,Non-resistant,0,0,4,12,92,Poorly resistant,63,0,5,8,3,Non-resistant,100,Classification and statistics of the grade of pesticide damage Grade 0 ([2]; mesotrione 105 g ai/ha): 0; Classification and statistics of the grade of pesticide damage Grade 1 ([2]; mesotrione 105 g ai/ha): 0; Classification and statistics of the grade of pesticide damage Grade 2 ([2]; mesotrione 105 g ai/ha): 0; Classification and statistics of the grade of pesticide damage Grade 3 ([2]; mesotrione 105 g ai/ha): 16; Resistance evaluation ([3]; isoxaflutole 35 g ai/ha): Poorly; Scores ([3]; isoxaflutole 35 g ai/ha): 56; Classification and statistics of the grade of pesticide damage Grade 0 ([3]; isoxaflutole 35 g ai/ha): 0; Classification and statistics of the grade of pesticide damage Grade 1 ([3]; isoxaflutole 35 g ai/ha): 9; Classification and statistics of the grade of pesticide damage Grade 2 ([3]; isoxaflutole 35 g ai/ha): 3; Classification and statistics of the grade of pesticide damage Grade 3 ([3]; isoxaflutole 35 g ai/ha): 4; Resistance evaluation ([3]; isoxaflutole 70 g ai/ha): Non-resistant; Scores ([3]; isoxaflutole 70 g ai/ha): 100; Classification and statistics of the grade of pesticide damage Grade 0 ([3]; isoxaflutole 70 g ai/ha): 0; Classification and statistics of the grade of pesticide damage Grade 1 ([3]; isoxaflutole 70 g ai/ha): 0; Classification and statistics of the grade of pesticide damage Grade 2 ([3]; isoxaflutole 70 g ai/ha): 0; Classification and statistics of the grade of pesticide damage Grade 3 ([3]; isoxaflutole 70 g ai/ha): 16

# — US20250043302A1, “MUTATED HYDROXYPHENYLPYRUVATE DIOXYGENASE POLYPEPTIDE, AND CODING GENE AND USE THEREOF” (BEIJING DABEINONG BIOTECHNOLOGY CO., LTD., priority 2021, published 2025)
